The record followed here is publication PMC4512712 (Biochemistry, 2015).

Where “and” joins values, the source holds several entries; their conditions need not be identical. Identical values can stand only once. Like-named read-outs stand apart in the source and are kept apart here.

Broadly, the Kd is the free concentration of one partner at which half of the binding sites on the other are occupied at equilibrium, for simple one-to-one binding. A lower Kd goes with tighter binding. The stoichiometry N is a count of units in the complex or per binding partner.

B4: S135Q-HSPB5, full-length oligomer (natural protein)
chain: MDIAIHHPWIRRPFFPFHSPSRLFDQFFGEHLLESDLFPTSTSLSPFYLRPPSFLRAPSWFDTGLSEMRLEKDRFSVNLDVKHFSPEELKVKVLGDVIEVHGKHEERQDEHGFISREFHRKYRIPADVDPLTITQSLSSDGVLTVNGPRKQVSGPERTIPITREEKPAVTAAPKK

For data set [1], the target named is T1, Alpha-B-crystallin CTR CTR (Homo sapiens, UniProt P02511).
T1 chain: ERTIPITRE

Data set [2] concerns the molecule itself.
In data set [3] the target is B4. Description: SEC. Background: Size exclusion chromatography separates by hydrodynamic size, large species first.
In data set [4] the target is T2, E117C-HSPB5, full length (oligomeric) (human, UniProt P02511 1-175, E117C).
T2 sequence: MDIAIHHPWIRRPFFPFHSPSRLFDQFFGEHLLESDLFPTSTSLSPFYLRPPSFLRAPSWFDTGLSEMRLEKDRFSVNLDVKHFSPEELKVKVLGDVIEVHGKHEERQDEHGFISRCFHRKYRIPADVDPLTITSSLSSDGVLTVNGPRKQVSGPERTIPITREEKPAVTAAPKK
Nature of the data set: cross-linking.

Data set [5] has as its target T3, S135Q/E117C full-length HSPB5 oligomer (human, UniProt P02511 1-175, E117C | S135Q).
T3 sequence: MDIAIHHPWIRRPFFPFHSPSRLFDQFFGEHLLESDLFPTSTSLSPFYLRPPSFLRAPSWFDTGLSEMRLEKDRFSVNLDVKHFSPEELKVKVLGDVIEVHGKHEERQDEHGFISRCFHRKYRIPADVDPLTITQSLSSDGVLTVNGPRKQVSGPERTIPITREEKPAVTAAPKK
Description: cross-linking.

The target of data set [6] is T4, ΔN-HSPB6 (residues 65-160) (human, UniProt O14558 65-160).
T4 sequence: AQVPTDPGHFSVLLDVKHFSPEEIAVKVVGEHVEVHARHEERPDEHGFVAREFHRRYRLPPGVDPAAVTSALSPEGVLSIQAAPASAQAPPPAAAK
Nature of the data set: NMR titration.

The data set “SEC” deals with the molecule itself. Nature of the data set: SEC.
Data set [7] concerns the target B4. Description: SEC. The source holds these as a separate data set.

B1: Alpha-B-crystallin ACD ACD (protein)
chain: GLSEMRLEKDRFSVNLDVKHFSPEELKVKVLGDVIEVHGKHEERQDEHGFISREFHRKYRIPADVDPLTITSSLSSDGVLTVNGPRKQV
For B1, the results for the Kd in data set [1] and in data set [2] were roughly 100 µM and roughly 2 µM, respectively. The binding result in data set [3] is reported as “binds”.

B2: E117C-ACD-only (HSPB5 residues 64-152, E117C) (domain or fragment)
chain: GLSEMRLEKDRFSVNLDVKHFSPEELKVKVLGDVIEVHGKHEERQDEHGFISRCFHRKYRIPADVDPLTITSSLSSDGVLTVNGPRKQV
modifications: disulfide-locked dimer through C117 under nonreducing conditions
For the molecule B2, the binding result in data set [4] and in data set [5] was “binds” throughout. On to PERTIPITREEK [HSPB5-CTR peptide PERTIPITREEK], for which, in data set [6], the binding result was “binds”.

B3: HSPB6, full length, C46S (natural protein)
chain: MEIPVPVQPSWLRRASAPLPGLSAPGRLFDQRFGEGLLEAELAALSPTTLAPYYLRAPSVALPVAQVPTDPGHFSVLLDVKHFSPEEIAVKVVGEHVEVHARHEERPDEHGFVAREFHRRYRLPPGVDPAAVTSALSPEGVLSIQAAPASAQAPPPAAAK
Turning to B3, the “stoichiometry N” value in “SEC” is 2 and 4. Also, the binding result in data set [7] is reported as “binds”. As to B4, the binding result in “SEC” is reported as “binds”.
